Measurements reported in PMC3936728.

Key:
MepR WT = target: T1, MepR WT (Staphylococcus aureus, UniProt Q5Y812 1-139); experiment: ITC
T1 sequence: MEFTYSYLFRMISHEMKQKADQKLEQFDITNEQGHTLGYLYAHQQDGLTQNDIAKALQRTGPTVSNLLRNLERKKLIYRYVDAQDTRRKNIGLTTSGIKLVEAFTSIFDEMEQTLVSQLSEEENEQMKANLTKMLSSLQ

MepR (crystallization) = target: T2, MepR (crystallization) (Staphylococcus aureus, UniProt Q5Y812 1-139); experiment: crystal structure
T2 sequence: T1 sequence

B1: 27 bp mepR, scrambled recognition helix region (dsDNA)
DNA 1: TATTTACTATGTGTATCTAGGAAATGG
DNA 2: CCATTTCCTAGATACACATAGTAAATA
MepR WT
  binding result: no binding

B2: 24 bp palindromic mepR operator (dsDNA)
DNA 1: ATTTAGTTAGATATCTAACTAAAT
DNA 2: ATTTAGTTAGATATCTAACTAAAT
MepR (crystallization)
  binding result: binds

B3: 14 bp mepR site (dsDNA)
DNA 1: GTTAGACATCTAAC
DNA 2: GTTAGATGTCTAAC
MepR WT
  binding result: no binding
